Reference: patent publication US20200332020A1 (REGENTS OF THE UNIVERSITY OF MINNESOTA, published 2020)

Assays:
[1] = target: HSPG2 (perlecan) on cells (human, UniProt P98160 22-4391); assay: apparent KD, flow cytometry titration on tumor cells
[2] = target: T1, Recombinant HSPG2 domain 1 (first 247 amino acids of human HSPG2, C-terminal His tag) (human, UniProt P98160 22-247); assay: biolayer interferometry (BLItz), HSPG2 domain 1 on Ni-NTA biosensor
T1 construct: range 1-247; The stated range counts from residue 1, so it includes the signal peptide; also called HSPG2D1; perlecan domain 1; not shown: C-terminal His tag from the pcDNA 3.3+ vector
Description: We used biolayer inferometry (BLItz, Fortebio) to determine antibody binding kinetics specifically with purified HSPG2 domain 1. Ni-NTA biosensors were hydrated for 10 minutes in phosphate buffered saline. Following hydration, a 30 second baseline was established, followed by a 10-minute loading of the biosensor with 10 μg/mL HSPG2 domain 1 protein. The biosensor was then placed in PBS to establish baseline for 30 seconds. A two-step antibody association—dissociation cycle of 5 minutes each was then used to determine the kinetic association (kₐ) and dissociation (kd) rate constants. The equilibrium dissociation constant (KD) was calculated as KD=kd/kₐ
An important caveat with flow cytometry-based titration curves is the potential for avidity affects contributing to the binding, resulting in an ‘apparent KD’. Biophysical techniques are most often employed to generate the true, analytically relevant ‘intrinsic KD^{’} value. We chose biolayer interferometry as a means of assessing the kinetics of antibody-antigen binding with HSPG2D1.

Kd [1]: 125 to 275 nM | Kd [2]: 1790 nM | koff [2]: 0.0109 s⁻¹ | kon [2]: 6140 M⁻¹ s⁻¹
B1: Tw1S4_6 IgG (antibody, V domains shown)
VH: EVQLLESGGGLVQPGGSLRLSCAASGFTFSSYAMSWVRQAPGKGLEWVSAIREDGIKTYYADSVKGRFTISRDNSKNTLYLQMNSLRAEDTAVYYCAKRARRFDYWGQGTLVTVS
VL: DIQMTQSPSSLSASVGDRVTITCRASQSISSYLNWYQQKPGKAPKLLIYNASLLQSGVPSRFSGSGSGTDFTLTISSLQPEDFATYYCQQSLRSPITFGQGTKVEIKR
